This note sets out measurements from publication PMC12603206, “The sensitive and selective electrochemical detection of carcinoembryonic antigen using a nanoMIPs-aptamer sandwich assay”.

The target in the data set is Carcinoembryonic antigen (CEA) (UniProt P06731 35-685). Put plainly: electrochemical nanoMIPs-aptamer sandwich assay (SWASV of Pb2+); CEA captured on nanoMIPs electrode; aptamer on MOF-Pb probe; linear 1-1000 ng/mL, LOD 1.4 ng/mL (sensor values, not Kd); CEA in 0.01 M PBS pH 7.4, 1 h on nanoMIPs electrode, PBS/0.05% TWEEN20 wash; MOF-Pb-Apt probe (stored in 10 mM Tris-HCl pH 7.4) 30 min; temperature not stated. Conditions: protein: commercial.
Carcinoembryonic antigen (CEA), sequence (P06731 35-685): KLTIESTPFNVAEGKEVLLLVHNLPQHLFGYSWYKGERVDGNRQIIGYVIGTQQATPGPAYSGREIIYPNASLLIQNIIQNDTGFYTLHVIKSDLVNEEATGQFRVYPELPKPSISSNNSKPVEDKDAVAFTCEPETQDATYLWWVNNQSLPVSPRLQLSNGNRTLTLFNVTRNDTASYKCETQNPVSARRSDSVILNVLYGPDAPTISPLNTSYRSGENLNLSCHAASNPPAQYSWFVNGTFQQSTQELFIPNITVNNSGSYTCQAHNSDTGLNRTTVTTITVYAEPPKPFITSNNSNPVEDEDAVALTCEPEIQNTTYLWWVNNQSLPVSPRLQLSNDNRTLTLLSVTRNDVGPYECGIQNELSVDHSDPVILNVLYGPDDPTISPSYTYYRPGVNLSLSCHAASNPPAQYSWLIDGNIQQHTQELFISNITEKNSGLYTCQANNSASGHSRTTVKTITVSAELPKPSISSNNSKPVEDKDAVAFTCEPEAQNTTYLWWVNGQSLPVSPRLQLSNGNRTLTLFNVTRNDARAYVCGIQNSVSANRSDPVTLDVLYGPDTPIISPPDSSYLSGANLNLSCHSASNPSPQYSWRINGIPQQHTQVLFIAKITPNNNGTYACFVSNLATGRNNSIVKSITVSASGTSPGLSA

Regarding ATACCAGCTTATTCAATT (ssDNA, 5'-phosphate-C6) [CEA-specific aptamer], the binding result was “binds”.
